{"source": "patent US20260167959A1", "about": "“APTAZYME-BASED REGULATABLE GENE EXPRESSION SYSTEMS” (REJUVENATE BIO INC, priority 2022, published 2026)", "molecules": {"B1": {"name": "RA249 (nucleic acid)", "DNA": "GCGCGTCCTGGATTCGCGGAAACGCGTACATCCACCGGAATACCAGCATCGTCTTGATGCCCTTGGAAGTCCGGGCTGACGAGTCCCAAATAGGACGAAACGCGC", "modifications": "expressed or natural sequence"}, "B2": {"name": "RA250 (nucleic acid)", "DNA": "GCGCGAGTGATACCAGCATCGTCTTGATGCCCTTGGCAGCACTTCCTGGATTCGCGGAAACGCGTACATCCAGCTGACGAGTCCCAAATAGGACGAAACGCGC", "modifications": "expressed or natural sequence"}, "B3": {"name": "RA210: SEQ ID NO 210; theophylline inducible aptazyme (nucleic acid)", "chain": "GCTGTCACCGGAATACCAGCATCGTCTTGATGCCCTTGGAAGTCCGGTCTGATGAGTCCAAAAAGGACGAAACAGC", "modifications": "chemistry not given here", "notes": "theophylline inducible aptazyme"}}, "key": {"Renilla luciferase RNA": {"tested_on": "Renilla luciferase RNA", "experiment": "Barcoded aptazyme variant library screen: un-cleaved Renilla luciferase RNA by barcode read counts, HEK293-T cells", "format": "cell-based", "settings": "un-cleaved Renilla luciferase RNA, HEK293-T cells cultured with 1 mM theophylline (ON) over without theophylline (OFF); barcode read counts, triplicate", "in_short": "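Aptazyme variants (seven theophylline aptamers inserted after each T3H48 ribozyme nucleotide, 9-nt barcoded) cloned into the 3′ UTR of Renilla luciferase in psiCHECK-2; cells cultured ± theophylline, in triplicate. RNA and DNA barcodes amplified and sequenced; normalized read counts gave un-cleaved RNA fraction and ON/OFF fold-change.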"}, "GFP": {"tested_on": "GFP", "settings": "HEK293-T cells, dual FP plasmid, 24 hours post-transfection", "experimental": "The theophylline inducible aptazymes in Table 4 were tested using a dual fluorescent protein (FP) expression system.\nThe plasmids were transfected into HEK293-T cells, and the transfected cells were treated with (“ON”) or without (“OFF”) theophylline, as described in Example 1. Green FP (GFP) expression was measured as relative units 24 hours post-transfection (FIG. 4). […] The negative control used was cells transfected with analogous dual FP plasmid containing only the ribozyme sequence, and represented the maximal “OFF” state possible for the ribozyme."}}, "data": [{"molecule": "B1", "values": [{"measurement": "Fold change in RNA expression between the ON state and the OFF state", "setting": "Renilla luciferase RNA", "result": 1.1, "unit": "fold"}]}, {"molecule": "B2", "values": [{"measurement": "Fold change in RNA expression between the ON state and the OFF state", "setting": "Renilla luciferase RNA", "result": 1.1, "unit": "fold"}]}, {"molecule": "B3", "values": [{"measurement": "Fold change in RNA expression between the ON state and the OFF state", "setting": "Renilla luciferase RNA", "result": 1.2, "unit": "fold"}, {"measurement": "Fold-change in GFP expression, presence of theophylline over absence of theophylline", "setting": "GFP", "result": 2.55, "unit": "×"}]}]}
